The target in data set [1] is Pf MRNBD wild type (Mre11 + Rad50 NBD) (Pyrococcus furiosus, UniProt Q8U1N9;P58301 1-426;1-195+709-882, internal_change). In words: fluorescence polarization; 1 mM MnCl2, 0.1 mM EDTA, no ATP/Mg2+; FP: 25 nM DNA, 50 mM HEPES, 100 mM NaCl, 1 mM MnCl2, 0.1 mM EDTA, 1% glycerol, 1 mM TCEP, 0.1% PEG-6000, pH 7, 15 min room temperature; NMR at 50 C. For orientation: In fluorescence polarisation assays a small probe gives low polarisation when free and higher when bound to something large.

In data set [2] the target is Pf MRNBD Y199C (Pyrococcus furiosus, UniProt Q8U1N9;P58301 1-426;1-195+709-882, Y199C;internal_change). Described as above.

Results on two molecules are retold here after publication PMC8007570.

B1: FAM 40-mer dsDNA (dsDNA)
DNA 1: GTGTTCGGACTCTGCCTCAAGACGGTAGTCAACGTGCTTG
DNA 2: CAAGCACGTTGACTACCGTCTTGAGGCAGAGTCCGAACAC
A word on the Kd: it is a measure of binding affinity in units of concentration. Regarding B1, the results for the Kd in data set [1] and in data set [2] were 2000 nM and 2500 nM, respectively.
The corresponding values for GTGTTCGGACTCTGCCTCAAGACGGTAGTCAACGTGCTTG (ssDNA) [FAM 40-mer ssDNA] are 310 nM and 350 nM.
